Test results as given in patent US8357833B2, “Corn plants and seed enhanced for asparagine and protein” (priority 2007, dated 2013).

Substrate: N[C@@H](CC(=O)O)C(=O)O
Assay: Kinetics of recombinant his-tagged, refolded maize asparagine synthetase AsnS4 (substrate titration, asparagine by HPLC)
Assay type: biochemical, Zea mays
Conditions: other: Zm AsnS4, 100 mM Hepes, pH 8.0, 10 mM MgCl2
Experimental: To assay asparagine synthetase activity, desalted protein extracts (10-50 μL) were added to wells containing 100 μL assay solution (100 mM Hepes, pH 8.0, 10 mM MgCl2, 2 mM aspartate, 5 mM DTT, 10 mM ATP, 1 mM amino(oxy)acetic acid (aspartate amino transferase inhibitor), 1 mM aspartic semialdehyde (asparaginase inhibitor). To start the reaction, glutamine (final concentration of 2 mM for standard assay) was added to the solution, which was then mixed. The assay mixture was then incubated for 1 to 2 hours. The reaction was then stopped by the addition of an equal volume of 20% (w/v) trichloroacetic acid. The mixture was then filtered to remove precipitate and asparagine was measured by HPLC. Sample size was increased from 0.5 μL to 2.5 μL for HPLC, excitation wavelength was reduced from 340 nm to 235 nm, and fluorimeter gain was increased from 10 to 13.
This example describes the cloning of the nucleotide sequence for AsnS1 (SEQ ID NO: 1), AsnS2 (SEQ ID NO: 3), AsnS3 (SEQ ID NO: 5) and AsnS4 (SEQ ID NO: 50) into E. coli expression vectors, as well as the expression, purification and kinetics of the recombinant forms of the four AsnS isoforms.
These vectors are expected to produce recombinant proteins with C-terminal histidine tags.
The E. coli expression vectors described in the previous paragraph were used to transform Rosetta DE5™ E. coli cells (Novagen). […]

B1: Zea mays asparagine synthetase Zm AsnS4 (SEQ ID NO: 51, encoded by SEQ ID NO: 50) (Zea mays) (protein)
chain: MCGILAVLGCSDCSQARRARILACSRRLKHRGPDWSGLYQHEGNFLAQQRLAIVSPLSGDQPLFNEDRTVVVVANGEIYNHKNVRKQFTGAHSFSTGSDCEVIIPLYEKYGENFVDMLDGVFAFVLYDTRDRTYVAARDAIGVNPLYIGWGSDGSVWMSSEMKALNEDCVRFEIFPPGHLYSSAGGGFRRWYTPHWFQEQVPRTPYQSLVLREAFEKAVIKRLMTDVPFGVLLSGGLDSSLVASVTKRHLVETDAAEKFGTELHSFVVGLEGSPDLKAAREVADYLGTTHHEFHFTVQDGIDAIEEVIYHDETYDVTTIRASTPMFLMARKIKSLGVKMVLSGEGSDELLGGYLYFHFAPNREELHRETCRKVKALHQYDCLRANKATSAWGLEVRVPFLDKEFVDVAMGMDPEWKMYDKNLGRIEKWVLRKAFDDEEHPYLPEHILYRQKEQFSDGVGYNWIDGLKSFTEQQVTDEMMNSAAQMFPYNTPVNKEAYYYRMIFERLFPQDSARETVPWGPSIACSTPAAIEWVEQWKASNDPSGRFISSHDSAATDRTGDKLAVANGGGHGAANGTVNGNDVAVAIAV
notes: 588 aa
Km: 930 µM
